Measured values taken from publication PMC3540032, “Comprehensive Analysis and Identification of the Human STIM1 Domains for Structural and Functional Studies” (PLoS ONE, 2013).

Target: T1, hSTIM1 S340-M490 (CAD-containing construct) (human, UniProt Q13586 340-490)
T1 construct: also called the CAD; source: E. coli Rosetta (DE3), purified (IMAC, SEC, IEX, low salt SEC)
Assay: SPR; Biacore T200; Orai1 peptide immobilised on a CM5 chip by ligand thiol coupling at 1000 RU; analytes injected at 10 µM; HBS-EP buffer (20 mM HEPES, pH 7.4, 150 mM NaCl, 3.4 mM EDTA, 0.005% Polysorbate 20), 30 µL/min
Details: both partners purified

T1 sequence (Q13586 340-490): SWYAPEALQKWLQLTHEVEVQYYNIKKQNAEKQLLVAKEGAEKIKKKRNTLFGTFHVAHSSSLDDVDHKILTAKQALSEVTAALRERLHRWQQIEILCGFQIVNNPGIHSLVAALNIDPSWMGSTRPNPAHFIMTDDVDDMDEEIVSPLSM

B1: Orai1 C-terminal peptide with an extra N-terminal Cys (peptide)
peptide: CRSLVSHKTDRQFQELNELAEFARLQDQLDHRGDHPLTPGSHYA
notes: extra Cys added to the N-terminus for immobilisation via thiol coupling; The added Cys is coupled to the CM5 chip by thiol coupling, which leaves the C-terminal end free; also called Orai1 C-terminus; Orai1 C-terminal domain; source: synthetic peptide (Peptide 2.0), purified by SEC (Superdex Peptide)
B1: binds.
